Measurements taken from patent US20230054274A1, “PEPTIDE-MHC COMPLEXES” (priority 2019, published 2023).

Target: HLA-E*01:03 (Homo sapiens, UniProt P13747)
Assay: Stability of native peptide-HLA-E complexes by loss of ILT2 binding over time (SPR)

HLA-E*01:03, sequence (P13747 with tags, fused parts or gaps): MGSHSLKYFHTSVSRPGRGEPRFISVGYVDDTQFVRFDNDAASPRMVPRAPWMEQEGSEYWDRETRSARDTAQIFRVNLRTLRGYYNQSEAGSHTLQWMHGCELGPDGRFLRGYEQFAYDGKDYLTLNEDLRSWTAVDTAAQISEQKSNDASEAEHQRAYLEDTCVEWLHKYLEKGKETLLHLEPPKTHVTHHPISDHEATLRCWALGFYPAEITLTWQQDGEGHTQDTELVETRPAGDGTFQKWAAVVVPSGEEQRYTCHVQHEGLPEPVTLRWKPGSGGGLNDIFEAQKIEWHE
HLA-E*01:03, sequence (P61769 with tags, fused parts or gaps partner): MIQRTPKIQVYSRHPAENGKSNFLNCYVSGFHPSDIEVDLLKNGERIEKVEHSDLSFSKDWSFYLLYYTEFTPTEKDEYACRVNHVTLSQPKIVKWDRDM

| T 1/2 (h) (HLA-E*01:03) (native unmodified peptide in complex with HLA-E*01:03, half-life by ILT2 binding) | Sequence | T 1/2 (h) (HLA-E*01:03) ([…], half-life by ILT2 binding) |
| --- | --- | --- |
| 3.00 | VMAPRTLVL |  |
|  | VMAPRTLIL | 3.20 |
|  | RMYSPVSIL [HIV (Gag 275) peptide known to be presented by HLA-E] | 0.27 |
|  | ILPSDAPVL [MTB peptide known to be presented by HLA-E] | 0.70 |
|  | VMATRRNVL [MTB peptide known to be presented by HLA-E] | 0.57 |
